Laboratory results taken from article PMC4513076.

Experiments:
[1] = molecular target: T1, IolR (Salmonella enterica) (UniProt A0A0H3NJ61); test: EMSA
T1 sequence: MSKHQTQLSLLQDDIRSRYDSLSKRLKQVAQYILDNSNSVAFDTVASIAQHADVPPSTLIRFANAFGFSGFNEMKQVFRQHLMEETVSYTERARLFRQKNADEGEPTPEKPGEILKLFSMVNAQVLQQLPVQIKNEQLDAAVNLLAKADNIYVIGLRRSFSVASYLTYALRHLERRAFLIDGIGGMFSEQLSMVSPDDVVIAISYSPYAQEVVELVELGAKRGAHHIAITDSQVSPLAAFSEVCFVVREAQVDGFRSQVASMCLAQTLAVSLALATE

[2] = molecular target: IolR, myo-inositol catabolism repressor (RpiR-like transcriptional repressor) of Salmonella enterica (Salmonella enterica serovar Typhimurium LT2); test: SEC
IolR = IolR (Salmonella enterica, UniProt A0A0H3NJ61 1-277); test: EMSA

| Molecule | binding [1] | other results |
| --- | --- | --- |
| CATACCGGTTTCCCTTACACAGAAGTGACCGGATAATTTTAAACGCTTTCGCTATTTTATGCTGTGACGTTTCCCGGATGTTGCGTTTTTCCTGCCAGATAGCGCGTTTTGAAACGGGTGAAATGTTCACCTAAACTGGTTGCCGCCTCG (double strand) [Ppat (150 nt)] | binds |  |
| IolR, myo-inositol catabolism repressor (RpiR-like transcriptional repressor) of Salmonella enterica (natural protein) |  | stoichiometry N [2]: 4 |
| CATGCATGATACTCTAATAGAACGAAAATTTCGTAAATAACCATATTAGCACAAATGAACTGAACATACAGTTAACAACATTCAAATTGCGCTGTGGTTACCTTCAGTACAGAATTTGCTGGCGGGCTGGGTTCTGAGCAATCTGAATCTGACCGCATAAATGCGACAGGATCAG (double strand) [PiolR (175 nt)] | binds |  |
| Ppat45 (dsDNA) DNA 1: CAACCAGTTTAGGTGAACATTTCACCCGTTTCAAAACGCGCTATCT DNA 2: AGATAGCGCGTTTTGAAACGGGTGAAATGTTCACCTAAACTGGTTG |  | binding result (IolR): binds |
